Measurements published in publication PMC4350284.

Assays:
STAT5A = STAT5A (UniProt P42230); test: biotin-peptide precipitation from lysate, GFP blot; settings: reference: non-phosphorylated Src peptide; sites Y416
STAT5A-eYFP (murine) = STAT5A-eYFP (murine) (UniProt P42230)

Row | binding against the reference (STAT5A) | Substance | subcellular distribution of STAT5A-eYFP in HeLa T-REx FRT cells expressing vSrc^Y416F-dsRed, nucleus/cytoplasm (n/c) ratio (STAT5A-eYFP (murine))
1 | gained | Src-peptide (activation loop of cSrc (vSrc), Yes and Fyn) (from UniProt P00523) pY416 Src peptide | –
2 | – | vSrc^Y416F-dsRed (from UniProt P00524 1-526) (enzyme) | 1
